Paper PMC12474171

Key:
[1] = target: AAVpo.1 capsid (porcine adeno-associated virus po.1; VP1, VP2 and VP3) (adeno-associated virus AAVpo.1 (isolated from porcine tissues)); experiment: cryo-EM structure
[2] = target: AAVpo.6 capsid (porcine adeno-associated virus po.6; VP1, VP2 and VP3) (adeno-associated virus AAVpo.6 (isolated from porcine tissues)); experiment: cryo-EM structure

| Substance | stoichiometry N [1] | stoichiometry N [2] |
| --- | --- | --- |
| AAVpo.1 capsid (porcine adeno-associated virus po.1; VP1, VP2 and VP3) (complex) | 60 | – |
| AAVpo.6 capsid (porcine adeno-associated virus po.6; VP1, VP2 and VP3) (complex) | – | 60 |
